Data: the supplement of paper PMC7877785
± gives the uncertainty stated by the source.

Assay: self-splicing fitness, log relative to wild type (ln ratio); higher = more splicing; Tetrahymena group I intron in knt gene, E. coli kanamycin selection, DiMSum; sequences stand for … in CUCUCU…GGAGGGAAAAGUUAUCAGGCAUGCACCUGGUAGCUAGUCUUUAAACCAAUAGAUUGCAUCGGUUUAAAAGGCAAGACCGUCAAAUUGCGGGAAAGGGGUCAACAGCCGUUCAGUACCAAGUCUCAGGGGAAACUUUGAGAUGGCCUUGCAAAGGGUAUGGUAAUAAGCUGACGGACAUGGUCCUAACCACGCAGCCAAGUCCUAAGUCAACAGAUCUUCUGUUGAUAUGGAUGCAGUUCACAGACUAAAUGUCGGUCGGGGAAGAUGUAUUCUUCUCAUAAGAUAUAGUCGGACCUCUCCUUAAUGGGAGCUAGCGGAUGAAGUGAUGCAACACUGGAGCCGCUGGGAACUAAUUUGUAUGCGAAAGUAUAUUGAUUAGUUUUGGAGUACUCGUGGUCG
Summary of the method: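 The eight P1ex-region nucleotides of an intron in the knt kanamycin-resistance gene on pET-22b(+) were all randomised and the library put into E. coli BL21(DE3). Six replicate transformations were grown overnight at 37°C or 30°C on LB agar with or without 25 μg/mL kanamycin, together with 100 μg/mL carbenicillin, 50 μM IPTG and 0.2% rhamnose. Colonies were pooled and amplicon-sequenced on an Illumina HiSeq 2500. Fitness from DiMSum is the error-weighted combination of wild-type-normalised replicate fold changes, kanamycin over none.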

| Sequence | self-splicing fitness (ln) (30 °C) | self-splicing fitness (ln) (37 °C) |
| --- | --- | --- |
| CCUGAGCAAUAUUACGACAC | -2.49 ± 0.49 | -2.19 ± 0.28 |
| UUAAAGCAAUAUUACGUUUG | -2.18 ± 0.087 | -0.699 ± 0.093 |
| CGACAGCAAUAUUACGGUAC | -4.52 ± 0.36 | -2.09 ± 0.2 |
| GCCCAGCAAUAUUACGGCCC | -1.09 ± 0.18 | -0.738 ± 0.32 |
| UAGCAGCAAUAUUACGUGAU | -3.42 ± 0.13 | -1.09 ± 0.11 |
| ACCUAGCAAUAUUACGUAAG | -1.53 ± 0.065 | -0.172 ± 0.081 |
| CUGGAGCAAUAUUACGGUGC | -3.49 ± 0.48 |  |
| GCAGAGCAAUAUUACGCAGC | -2.42 ± 0.47 |  |
| GCUCAGCAAUAUUACGGAUC | -0.0202 ± 0.09 | -0.0789 ± 0.11 |
| CCGGAGCAAUAUUACGAGUG | -1.61 ± 0.076 | -0.14 ± 0.084 |
| GCACAGCAAUAUUACGGUCC | -0.798 ± 0.062 | 0.0593 ± 0.082 |
| AAUUAGCAAUAUUACGGUAA | -2.72 ± 0.2 | -0.655 ± 0.22 |
| AGCUAGCAAUAUUACGGUGA | -1.81 ± 0.2 | -0.51 ± 0.2 |
| UUCAAGCAAUAUUACGAGGC | -1.97 ± 0.21 | -1.76 ± 0.23 |
| GCUAAGCAAUAUUACGGUUC | -1.72 ± 0.097 | -0.788 ± 0.11 |
| GGUGAGCAAUAUUACGGCAC | -1.85 ± 0.17 | -0.155 ± 0.18 |
| GGGUAGCAAUAUUACGUUUG | -1.9 ± 0.14 | -1.35 ± 0.21 |
| UAGAAGCAAUAUUACGUAAU | -3.43 ± 0.22 | -1.39 ± 0.18 |
| CACAAGCAAUAUUACGAACU | -3.64 ± 0.19 | -2.37 ± 0.17 |
| CGCCAGCAAUAUUACGGUUC | -2.29 ± 0.11 | -1.54 ± 0.11 |
| GCGUAGCAAUAUUACGGUGA | -1.73 ± 0.12 | -0.187 ± 0.12 |

| Sequence | self-splicing fitness (ln) (30 °C) | self-splicing fitness (ln) (37 °C) |
| --- | --- | --- |
| CGACAGCAAUAUUACGGGUA | -4.49 ± 0.28 | -1.49 ± 0.12 |
| AAAAAGCAAUAUUACGCAGG | -2.42 ± 0.15 | -1.03 ± 0.14 |
| GUGGAGCAAUAUUACGCACU | 0.427 ± 0.33 |  |
| AUUUAGCAAUAUUACGACGA | -0.672 ± 0.15 | 0.131 ± 0.18 |
| GGCGAGCAAUAUUACGUCAC | -3.01 ± 0.23 |  |
| GGGUAGCAAUAUUACGUAUA | -1.41 ± 0.14 | -0.205 ± 0.15 |
| GUUGAGCAAUAUUACGACAU | -0.358 ± 0.014 | -0.067 ± 0.034 |
| CAGGAGCAAUAUUACGCCGC | -2.74 ± 0.25 | -1.58 ± 0.46 |
| GCGGAGCAAUAUUACGCGUG | -2.56 ± 0.29 | -1.85 ± 0.29 |
| UGCCAGCAAUAUUACGAUUC | -2.68 ± 0.18 | -2.41 ± 0.3 |
| UCCAAGCAAUAUUACGAAAA | -2.15 ± 0.18 | -0.93 ± 0.12 |
| GUAUAGCAAUAUUACGGUAG | -1.43 ± 0.095 | -1.23 ± 0.15 |
| GUAUAGCAAUAUUACGCAUG | -3.35 ± 0.24 | -1.01 ± 0.17 |
| UAUGAGCAAUAUUACGGGAC |  | -1.11 ± 0.17 |
| CUCAAGCAAUAUUACGAGAU | -3.89 ± 0.2 | -0.936 ± 0.12 |
| UGAGAGCAAUAUUACGCGAU | -3.4 ± 0.33 | -2.24 ± 0.39 |
| UGUAAGCAAUAUUACGAUAA | -1.12 ± 0.1 | 0.257 ± 0.13 |
| ACCCAGCAAUAUUACGGUCA | -1.55 ± 0.067 | -0.429 ± 0.069 |
| AAAGAGCAAUAUUACGAUGU | -2.08 ± 0.17 | -1.37 ± 0.23 |
| CAAGAGCAAUAUUACGCCAU | -3.2 ± 0.23 | -2.02 ± 0.28 |
| CACCAGCAAUAUUACGGAUA | -1.42 ± 0.065 | -1.18 ± 0.069 |

| Sequence | self-splicing fitness (ln) (30 °C) | self-splicing fitness (ln) (37 °C) |
| --- | --- | --- |
| CGGUAGCAAUAUUACGCGGU | -3.28 ± 0.22 | -2.96 ± 0.16 |
| CGUCAGCAAUAUUACGAACU | -0.352 ± 0.095 | -0.0116 ± 0.11 |
| ACCCAGCAAUAUUACGGCGC | -0.619 ± 0.062 | 0.132 ± 0.096 |
| AUGAAGCAAUAUUACGAGCU | -1.52 ± 0.12 | -0.173 ± 0.14 |
| CUCAAGCAAUAUUACGCGGU | -3.45 ± 0.19 | -1.07 ± 0.12 |
| CUUUAGCAAUAUUACGGUUA | -3.31 ± 0.28 | -3.19 ± 0.37 |
| UCAAAGCAAUAUUACGUGCG | -1.13 ± 0.045 | -0.496 ± 0.064 |
| CCCCAGCAAUAUUACGGCAU | -3.43 ± 0.14 | -2.42 ± 0.14 |
| UCCAAGCAAUAUUACGGUAC | -4.3 ± 0.23 | -2.81 ± 0.24 |
| UGUAAGCAAUAUUACGUCUU | -1.74 ± 0.093 | -0.338 ± 0.11 |
| AGGUAGCAAUAUUACGGGCC | -1.74 ± 0.024 | -1.5 ± 0.041 |
| UCUCAGCAAUAUUACGGGCA | -0.117 ± 0.073 | 0.575 ± 0.09 |
| CUGCAGCAAUAUUACGAUUC |  | -2.05 ± 0.2 |
| GGUUAGCAAUAUUACGGCUA | -0.605 ± 0.088 | 0.861 ± 0.13 |
| ACUUAGCAAUAUUACGCCUC | -2.19 ± 0.26 | -1.64 ± 0.3 |
| AUUGAGCAAUAUUACGUUGG | -3.62 ± 0.36 | -0.682 ± 0.17 |
| AGGAAGCAAUAUUACGCAGC | -3.55 ± 0.33 | -1.47 ± 0.31 |
| ACUGAGCAAUAUUACGUCAU | -4.08 ± 0.39 | -2.26 ± 0.19 |
| GUGGAGCAAUAUUACGAGUU |  | -1.7 ± 0.43 |
| GAUAAGCAAUAUUACGCUCU | -2.11 ± 0.18 | -0.116 ± 0.2 |
